Data as given in US20110076723A1, “ANTIBODY-PEPTIDE FUSED SYNERGIBODY” (SAMSUNG ELECTRONICS CO., LTD., priority 2008, published 2011).

B1: Syn-Ang-VEGFR-13: fused protein synergibody SAITAng-2-3 × DTN9VEGFR-2-3, peptide at C-terminal of heavy chain (protein)
heavy (part 1 of 2): DVQLVESGGGLVQPGGSRKLSCAASGFTFSSFGMHWVRQAPEKGLEWVAYISSDSSTIYYADTVKGRFTISRDNPKNTLFLQMTSLRSEDTAMYYCAREGGYDDYYAMDYWGQGTSVTVSS
heavy (part 2 of 2): EAGAYWCKAWGLSPCLVT
light: DIQMTQSPASQSASLGESVTITCLASQTIGTWLAWYQQKPGKSPQLLIYAATSLADGVPSRFSGSGSGTKFSFKISSLQAEDFVSYYCQQLYSIPLTFGGGTKLEIK
modifications: left off: a dimerising Fc or GST
notes: fused protein synergibody SAITAng-2-3 × DTN9VEGFR-2-3, peptide at C-terminal of heavy chain
B2: Syn-Ang-VEGFR-15: fused protein synergibody SAITAng-2-3 × DTN11VEGFR-2-5, peptide at C-terminal of heavy chain (protein)
heavy (part 1 of 2): DVQLVESGGGLVQPGGSRKLSCAASGFTFSSFGMHWVRQAPEKGLEWVAYISSDSSTIYYADTVKGRFTISRDNPKNTLFLQMTSLRSEDTAMYYCAREGGYDDYYAMDYWGQGTSVTVSS
heavy (part 2 of 2): PGSQGYCHLNMRYQWICDSE
light: DIQMTQSPASQSASLGESVTITCLASQTIGTWLAWYQQKPGKSPQLLIYAATSLADGVPSRFSGSGSGTKFSFKISSLQAEDFVSYYCQQLYSIPLTFGGGTKLEIK
modifications: left off: a dimerising Fc or GST
notes: fused protein synergibody SAITAng-2-3 × DTN11VEGFR-2-5, peptide at C-terminal of heavy chain
B3: Syn-Ang-VEGFR-14: fused protein synergibody SAITAng-2-3 × DTN10VEGFR-2-4, peptide at C-terminal of heavy chain (protein)
heavy (part 1 of 2): DVQLVESGGGLVQPGGSRKLSCAASGFTFSSFGMHWVRQAPEKGLEWVAYISSDSSTIYYADTVKGRFTISRDNPKNTLFLQMTSLRSEDTAMYYCAREGGYDDYYAMDYWGQGTSVTVSS
heavy (part 2 of 2): TGSGRMCDGSGPPTNCWFT
light: DIQMTQSPASQSASLGESVTITCLASQTIGTWLAWYQQKPGKSPQLLIYAATSLADGVPSRFSGSGSGTKFSFKISSLQAEDFVSYYCQQLYSIPLTFGGGTKLEIK
modifications: left off: a dimerising Fc or GST
notes: fused protein synergibody SAITAng-2-3 × DTN10VEGFR-2-4, peptide at C-terminal of heavy chain
B4: Syn-Ang-VEGFR-16: fused protein synergibody SAITAng-2-4 × DTN6VEGFR-2-1, peptide at C-terminal of heavy chain (protein)
heavy (part 1 of 2): QVQLQQSGAELARPGASVKLSCKASGYTFTDYYINWAKQRTGQGLEWIGEIYPGSGDTYYNEKFKGKATLTADKSSSTAYMQLSSLTSEDSAVYFCARYGYKGVYFDYWGQSTTLTVSS
heavy (part 2 of 2): TGSDDLCYTFPCMHY
light: ENVLTQSPAIMAASLGQKVTMTCSASSSVSSSYLHWYQQKSGASPKPLIHRTSNLASGVPARFSGSGSGTSYSLTISSVEAEDDATYYCQQWSGYPFTFGAGTKLELK
modifications: left off: a dimerising Fc or GST
notes: fused protein synergibody SAITAng-2-4 × DTN6VEGFR-2-1, peptide at C-terminal of heavy chain
B5: Syn-Ang-VEGFR-17: fused protein synergibody SAITAng-2-4 × DTN8VEGFR-2-2, peptide at C-terminal of heavy chain (protein)
heavy (part 1 of 2): QVQLQQSGAELARPGASVKLSCKASGYTFTDYYINWAKQRTGQGLEWIGEIYPGSGDTYYNEKFKGKATLTADKSSSTAYMQLSSLTSEDSAVYFCARYGYKGVYFDYWGQSTTLTVSS
heavy (part 2 of 2): EAGKETCGYEWQYCPRP
light: ENVLTQSPAIMAASLGQKVTMTCSASSSVSSSYLHWYQQKSGASPKPLIHRTSNLASGVPARFSGSGSGTSYSLTISSVEAEDDATYYCQQWSGYPFTFGAGTKLELK
modifications: left off: a dimerising Fc or GST
notes: fused protein synergibody SAITAng-2-4 × DTN8VEGFR-2-2, peptide at C-terminal of heavy chain
B6: Syn-Ang-VEGFR-19: fused protein synergibody SAITAng-2-4 × DTN10VEGFR-2-4, peptide at C-terminal of heavy chain (protein)
heavy (part 1 of 2): QVQLQQSGAELARPGASVKLSCKASGYTFTDYYINWAKQRTGQGLEWIGEIYPGSGDTYYNEKFKGKATLTADKSSSTAYMQLSSLTSEDSAVYFCARYGYKGVYFDYWGQSTTLTVSS
heavy (part 2 of 2): TGSGRMCDGSGPPTNCWFT
light: ENVLTQSPAIMAASLGQKVTMTCSASSSVSSSYLHWYQQKSGASPKPLIHRTSNLASGVPARFSGSGSGTSYSLTISSVEAEDDATYYCQQWSGYPFTFGAGTKLELK
modifications: left off: a dimerising Fc or GST
notes: fused protein synergibody SAITAng-2-4 × DTN10VEGFR-2-4, peptide at C-terminal of heavy chain
B7: Syn-Ang-VEGFR-18: fused protein synergibody SAITAng-2-4 × DTN9VEGFR-2-3, peptide at C-terminal of heavy chain (protein)
heavy (part 1 of 2): QVQLQQSGAELARPGASVKLSCKASGYTFTDYYINWAKQRTGQGLEWIGEIYPGSGDTYYNEKFKGKATLTADKSSSTAYMQLSSLTSEDSAVYFCARYGYKGVYFDYWGQSTTLTVSS
heavy (part 2 of 2): EAGAYWCKAWGLSPCLVT
light: ENVLTQSPAIMAASLGQKVTMTCSASSSVSSSYLHWYQQKSGASPKPLIHRTSNLASGVPARFSGSGSGTSYSLTISSVEAEDDATYYCQQWSGYPFTFGAGTKLELK
modifications: left off: a dimerising Fc or GST
notes: fused protein synergibody SAITAng-2-4 × DTN9VEGFR-2-3, peptide at C-terminal of heavy chain
B8: Syn-Ang-VEGFR-20: fused protein synergibody SAITAng-2-4 × DTN11VEGFR-2-5, peptide at C-terminal of heavy chain (protein)
heavy (part 1 of 2): QVQLQQSGAELARPGASVKLSCKASGYTFTDYYINWAKQRTGQGLEWIGEIYPGSGDTYYNEKFKGKATLTADKSSSTAYMQLSSLTSEDSAVYFCARYGYKGVYFDYWGQSTTLTVSS
heavy (part 2 of 2): PGSQGYCHLNMRYQWICDSE
light: ENVLTQSPAIMAASLGQKVTMTCSASSSVSSSYLHWYQQKSGASPKPLIHRTSNLASGVPARFSGSGSGTSYSLTISSVEAEDDATYYCQQWSGYPFTFGAGTKLELK
modifications: left off: a dimerising Fc or GST
notes: fused protein synergibody SAITAng-2-4 × DTN11VEGFR-2-5, peptide at C-terminal of heavy chain

Test system: HUVEC
Assay: Cell-based functional assay, endothelial cell tube formation (BD BioCoat Angiogenesis System)
Set-up: species or system human
Conditions: 5 μM fused protein synergibody, 18 hours; unrelated control group 12,227 ± 1,232
Experimental: Chimeric antibodies may be screened by functional assays such as cell-based assay for inhibition activity. In this example, BD BioCoat™ Angiogenesis System-Endothelial Cell Tube Formation (BD Biosciences) is used. BD Falcon 96-well Black/Clear plate coated with BD Matrigel Matrix that had been stored at −20° C. is slowly melted at 4° C. for 6 hours, and the mat cover of the plate is removed inside a sterile clean bench. Then it is left at 37° C. , 5% CO2 for 30 minutes so that the Matrigel™ Matrix would form polymers. Then it is made into a suspension by treating HUVEC, cultured on a petridish containing EGM-2 MV (Lonza) medium added with 10% fetal bovine serum to 70 to 80% confluence, with 0.5% Trypsin-EDTA (Gibco). Then it is resuspended in a culture medium containing 10% fetal bovine serum to a cell concentration of 4×10^5 cells/ml. At this time, 5 μM of each anti-Ang-2 chimeric antibodies expressed and purified in Section 5 above are also added and resuspended. Then 50 μl (about 2×10^4 cells) of each of the suspension is added to each well of the plate and incubated at 37° C. , 5% CO2 for 18 hours. Then the medium is removed and each well is washed twice with 100 μl of Hanks' balanced salt solution (HBSS, Invitrogen) ensuring that the tubes of the cells formed on BD Matrigel™ Matrix are not damaged. 50 μl of calcein AM (BD sciences) dissolved in HBSS at the concentration of 8 μg/ml is added to each well. The plate is then left to react at 37° C., 5% CO2 for 30 minutes and the calcein AM (BD sciences) solution is removed and washed twice with HBSS. Lastly, an image of the length of the entire tube of HUVEC formed on BD Matrigel™ Matrix is obtained on a fluorescent microscope and analyzed by using MetaMorph® software (Universal Imaging Corporation™, http://www.moleculardevices.com).
The peptides synthesized in Section 6A above are screened by cell-based functional assay for inhibition activity. The method described in Example 1, Section 7 is used, except that 5 μM synthesized peptides are added instead of anti-Ang-2 antibodies.
The fused protein synergibodies prepared in Section 1 above are screened using cell-based functional assay for inhibition activity. The method described in Example 1, Section 7 is used, except that, in this example, 5 μM of fused protein synergibodies are added instead of anti-Ang-2 antibodies.

Molecule	Length of entire tube of HUVEC (2 × 10^4 cells) (pixels)
B1	4,216 ± 747 pixels
B2	4,116 ± 815 pixels
B3	4,183 ± 698 pixels
B4	5,022 ± 809 pixels
B5	5,215 ± 714 pixels
B6	5,329 ± 822 pixels
B7	5,723 ± 736 pixels
B8	5,512 ± 699 pixels
